Read-outs that look alike come from different tables or passages of the source.
Key:
Assay in all cases: MHC II competition binding assay
[1] = target: T1, purified recombinant MHC II protein, allele DRB1*1501 (human)
T1 construct: bought from Benaroya Research Institute; also called MHC-II DR molecule

[2] = target: T2, purified recombinant MHC II protein, allele DRB1*1101 (human)
T2 construct: bought from Benaroya Research Institute; also called MHC-II DR molecule

[3] = target: T3, purified recombinant MHC II protein, allele DRB1*0101 (human)
T3 construct: bought from Benaroya Research Institute; also called MHC-II DR molecule

[4] = target: T4, purified recombinant MHC II protein, allele DRB1*0401 (human)
T4 construct: bought from Benaroya Research Institute; also called DR4; MHC-II DR molecule

[5] = target: T5, purified recombinant MHC II protein, allele DRB1*0701 (human)
T5 construct: bought from Benaroya Research Institute; also called MHC-II DR molecule

[6] = target: T1, purified recombinant MHC II protein, …; remark: listed apart in the source
[7] = target: T2, purified recombinant MHC II protein, …; remark: listed apart in the source
[8] = target: T3, purified recombinant MHC II protein, …; remark: listed apart in the source
[9] = target: T6, purified recombinant MHC II protein, allele DRB1*1301 (human)
T6 construct: bought from Benaroya Research Institute; also called MHC-II DR molecule

[10] = target: T7, purified recombinant MHC II protein, allele DRB1*0801 (human)
T7 construct: bought from Benaroya Research Institute; also called MHC-II DR molecule

[11] = target: T1, purified recombinant MHC II protein, …; remark: listed apart in the source
[12] = target: T2, purified recombinant MHC II protein, …; remark: listed apart in the source
[13] = target: T3, purified recombinant MHC II protein, …; remark: listed apart in the source
[14] = target: T8, purified recombinant MHC II protein, allele DRB1*0301 (human)
T8 construct: bought from Benaroya Research Institute; also called MHC-II DR molecule

[15] = target: T6, purified recombinant MHC II protein, …; remark: listed apart in the source
[16] = target: T4, purified recombinant MHC II protein, …; remark: listed apart in the source
[17] = target: T5, purified recombinant MHC II protein, …; remark: listed apart in the source
[18] = target: T7, purified recombinant MHC II protein, …; remark: listed apart in the source
[19] = target: T1, purified recombinant MHC II protein, …; remark: listed apart in the source
[20] = target: T2, purified recombinant MHC II protein, …; remark: listed apart in the source
[21] = target: T3, purified recombinant MHC II protein, …; remark: listed apart in the source
[22] = target: T8, purified recombinant MHC II protein, …; remark: listed apart in the source
[23] = target: T6, purified recombinant MHC II protein, …; remark: listed apart in the source
[24] = target: T4, purified recombinant MHC II protein, …; remark: listed apart in the source
[25] = target: T5, purified recombinant MHC II protein, …; remark: listed apart in the source
[26] = target: T7, purified recombinant MHC II protein, …; remark: listed apart in the source
[27] = target: T2, purified recombinant MHC II protein, …; remark: listed apart in the source
[28] = target: T3, purified recombinant MHC II protein, …; remark: listed apart in the source
[29] = target: T5, purified recombinant MHC II protein, …; remark: listed apart in the source
[30] = target: T7, purified recombinant MHC II protein, …; remark: listed apart in the source
[31] = target: T1, purified recombinant MHC II protein, …; remark: listed apart in the source
[32] = target: T2, purified recombinant MHC II protein, …; remark: listed apart in the source
[33] = target: T3, purified recombinant MHC II protein, …; remark: listed apart in the source
[34] = target: T8, purified recombinant MHC II protein, …; remark: listed apart in the source
[35] = target: T6, purified recombinant MHC II protein, …; remark: listed apart in the source
[36] = target: T4, purified recombinant MHC II protein, …; remark: listed apart in the source
[37] = target: T5, purified recombinant MHC II protein, …; remark: listed apart in the source
[38] = target: T7, purified recombinant MHC II protein, …; remark: listed apart in the source

B1: cluster 5 peptide with Ser124Gly (peptide)
peptide: HLHFQRMVNSFGNPTAQ
notes: synthetic mutated peptide of the lysostaphin catalytic domain; also called S124G
[1]
  IC50: < 0.01 µM
[2]
  IC50: 0.3 µM
[3]
  IC50: < 0.01 µM
[4]
  IC50: 0.04 µM
[5]
  IC50: 151 µM

## SAQWLNNYKKGYGYG [cluster 1 wild-type (C1WT) epitope peptide]
[6]
  IC50: 102 µM
[7]
  IC50: 0.94 µM
[8]
  IC50: 215 µM
[9]
  IC50: 137 µM
[10]
  IC50: 13.7 µM

B2: cluster 1 peptide with Asn13His (peptide)
peptide: SAQWLNHYKKGYGYG
notes: synthetic mutated peptide of the lysostaphin catalytic domain
[7]
  IC50: 4.13 µM
[9]
  IC50: 41.6 µM

B3: cluster 1 peptide with Asn12Gly (peptide)
peptide: SAQWLGNYKKGYGYG
notes: as for B2
[7]
  IC50: 5.16 µM
[8]
  IC50: < 0.01 µM
[10]
  IC50: 58.6 µM

## DYVKAGQIIGWSGSTGY [cluster 4 wild-type (C4WT) epitope peptide]
[11]
  IC50: < 0.01 µM
[12]
  IC50: 1.69 µM
[13]
  IC50: < 0.01 µM
[14]
  IC50: 31.4 µM
[15]
  IC50: 78.5 µM
[16]
  IC50: < 0.01 µM
[17]
  IC50: 92.9 µM
[18]
  IC50: 62.5 µM

B4: cluster 4 peptide with Lys95Glu (peptide)
peptide: DYVEAGQIIGWSGSTGY
notes: synthetic mutated peptide of the lysostaphin catalytic domain; also called K95E
[11]
  IC50: < 0.01 µM
[12]
  IC50: 6.32 µM
[13]
  IC50: < 0.01 µM
[14]
  IC50: 1.9 µM
[15]
  IC50: 25.7 µM
[16]
  IC50: < 0.01 µM
[17]
  IC50: 4.81 µM
[18]
  IC50: 12.2 µM

B5: cluster 4 peptide with Tyr93His/Ile99Gln (peptide)
peptide: DHVKAGQQIGWSGSTGY
notes: synthetic mutated peptide of the lysostaphin catalytic domain; also called 93_99
[11]
  IC50: < 0.01 µM
[13]
  IC50: < 0.01 µM
[16]
  IC50: < 0.01 µM
[17]
  IC50: 60.5 µM

B6: cluster 4 peptide with Tyr93His/Lys95Glu/Ile99Gln (peptide)
peptide: DHVEAGQQIGWSGSTGY
notes: synthetic mutated peptide of the lysostaphin catalytic domain; also called 939599
[17]
  IC50: 179 µM

B7: cluster 4 peptide with Lys95Glu/Ile99Gln (peptide)
peptide: DYVEAGQQIGWSGSTGY
notes: synthetic mutated peptide of the lysostaphin catalytic domain; also called 95-99
[11]
  IC50: < 0.01 µM
[12]
  IC50: 25.4 µM
[13]
  IC50: < 0.01 µM
[16]
  IC50: 25.8 µM
[17]
  IC50: 104 µM

B8: cluster 4 peptide with Tyr93His/Lys95Glu (peptide)
peptide: DHVEAGQIIGWSGSTGY
notes: synthetic mutated peptide of the lysostaphin catalytic domain; also called 93_95
[11]
  IC50: 0.06 µM
[12]
  IC50: 25 µM
[13]
  IC50: 9.98 µM
[14]
  IC50: 110 µM
[15]
  IC50: 18.9 µM
[16]
  IC50: 25.5 µM
[17]
  IC50: 24.9 µM
[18]
  IC50: 30.9 µM

B9: cluster 4 peptide with Ile99Gln (peptide)
peptide: DYVKAGQQIGWSGSTGY
notes: synthetic mutated peptide of the lysostaphin catalytic domain; also called I99Q
[11]
  IC50: 66.1 µM
[12]
  IC50: 24.3 µM
[13]
  IC50: 31.7 µM
[16]
  IC50: 6.16 µM
[17]
  IC50: 93.1 µM

B10: cluster 4 peptide with Tyr93His (peptide)
peptide: DHVKAGQIIGWSGSTGY
notes: synthetic mutated peptide of the lysostaphin catalytic domain; also called Y93H
[11]
  IC50: < 0.01 µM
[13]
  IC50: 103 µM
[17]
  IC50: 182 µM

## GVHRQWYMHLSKYNVKVGD [cluster 3 wild-type (C3WT) epitope peptide]
[19]
  IC50: 9.51 µM
[20]
  IC50: < 0.01 µM
[21]
  IC50: < 0.01 µM
[22]
  IC50: 155 µM
[23]
  IC50: 54.7 µM
[24]
  IC50: 38.1 µM
[25]
  IC50: 0.41 µM
[26]
  IC50: 0.14 µM

B11: cluster 3 peptide with Leu83Met (peptide)
peptide: GVHRQWYMHMSKYNVKVGD
notes: synthetic mutated peptide of the lysostaphin catalytic domain; also called L83M
[19]
  IC50: 4.42 µM
[20]
  IC50: 0.11 µM
[21]
  IC50: 32.4 µM
[22]
  IC50: 115 µM
[23]
  IC50: 27.4 µM
[25]
  IC50: 2.09 µM
[26]
  IC50: 0.37 µM
[27]
  fold decrease in binding against C3WT: 10 fold
[28]
  fold decrease in binding against C3WT: 2000 fold
[29]
  fold decrease in binding against C3WT: > 2 fold
[30]
  fold decrease in binding against C3WT: ~5 fold

## GVDFFMNIGTPVKAISSGKIV [cluster 2 wild-type (C2WT) epitope peptide]
[31]
  IC50: 2.37 µM
[32]
  IC50: 10.1 µM
[33]
  IC50: 0.22 µM
[34]
  IC50: 60.1 µM
[35]
  IC50: 104 µM
[36]
  IC50: 13.7 µM
[37]
  IC50: 8.19 µM

B12: cluster 2 peptide with Ile41Glu/Lys46His (peptide)
peptide: GVDFFMNEGTPVHAISSGKIV
notes: synthetic mutated peptide of the lysostaphin catalytic domain; also called 41_46
[31]
  IC50: < 0.01 µM
[32]
  IC50: < 0.01 µM
[33]
  IC50: < 0.01 µM
[36]
  IC50: < 0.01 µM
[37]
  IC50: 14.3 µM

B13: cluster 2 peptide with Lys46His (peptide)
peptide: GVDFFMNIGTPVHAISSGKIV
notes: synthetic mutated peptide of the lysostaphin catalytic domain; also called K46H
[31]
  IC50: 2.55 µM
[32]
  IC50: 18.3 µM
[33]
  IC50: 0.49 µM
[34]
  IC50: 152 µM
[35]
  IC50: 212 µM
[36]
  IC50: 1.65 µM
[37]
  IC50: 4.46 µM
[38]
  IC50: 87.5 µM
[28]
  fold decrease in binding against C2WT: 2 fold

B14: cluster 2 peptide with Ile41Glu (peptide)
peptide: GVDFFMNEGTPVKAISSGKIV
notes: synthetic mutated peptide of the lysostaphin catalytic domain; also called I41E
[31]
  IC50: 7.44 µM
[32]
  IC50: 146 µM
[33]
  IC50: 0.59 µM
[35]
  IC50: 143 µM
[36]
  IC50: 3.48 µM
[37]
  IC50: 7.51 µM
